Article PMC6797848, “A TBR1-K228E Mutation Induces Tbr1 Upregulation, Altered Cortical Distribution of Interneurons, Increased Inhibitory Synaptic Transmission, and Autistic-Like Behavioral Deficits in Mice”
Residue numbers refer to the chain shown, from its start.

Key:
Details in all cases: protein: recombinant; tags: N-terminal His6 removed by thrombin (pET28a, NdeI/HindIII); label: 5'-biotin on strand 1
[1] = molecular target: T1, TBR1 T-box domain WT (hTBR1DBD) (human, UniProt Q16650 200-400); assay: BLI; protein 2.5-10 uM; Kd only plotted in figure; BLI (BLITZ, streptavidin sensor): kinetic buffer 20 mM HEPES pH 7.5, 100 mM NaCl, 25 C (stated for sensor hydration/equilibration); protein stock in 20 mM HEPES pH 7.5, 150 mM NaCl, 5 mM MgCl2
T1 sequence: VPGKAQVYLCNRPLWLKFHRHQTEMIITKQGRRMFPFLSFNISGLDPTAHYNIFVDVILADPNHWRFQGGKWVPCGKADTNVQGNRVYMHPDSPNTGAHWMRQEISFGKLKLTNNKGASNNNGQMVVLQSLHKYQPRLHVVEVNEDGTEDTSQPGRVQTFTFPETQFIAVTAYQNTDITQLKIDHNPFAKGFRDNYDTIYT

TBR1 T-box domain N374H = molecular target: T2, TBR1 T-box domain N374H (human, UniProt Q16650 200-400, N374H); assay: BLI; n=3; stated as no effect on affinity; Kd only plotted in figure; BLI (BLITZ, streptavidin sensor): kinetic buffer 20 mM HEPES pH 7.5, 100 mM NaCl, 25 C (stated for sensor hydration/equilibration); protein stock in 20 mM HEPES pH 7.5, 150 mM NaCl, 5 mM MgCl2
T2 sequence: T1 sequence with N175H

TBR1 T-box domain K228E = molecular target: T3, TBR1 T-box domain K228E (human, UniProt Q16650 200-400, K228E); assay: BLI; n=3; Kd only plotted in figure; BLI (BLITZ, streptavidin sensor): kinetic buffer 20 mM HEPES pH 7.5, 100 mM NaCl, 25 C (stated for sensor hydration/equilibration); protein stock in 20 mM HEPES pH 7.5, 150 mM NaCl, 5 mM MgCl2
T3 sequence: T1 sequence with K29E

B1: Grin2b-promoter probe (dsDNA)
DNA 1: TATATAGGTTGAGTGGCACGTTCCTGGGTGTGAGACC
DNA 2: GGTCTCACACCCAGGAACGTGCCACTCAA
- binding result [1]: binds
- binding signal (TBR1 T-box domain N374H): ~1 fold Kd vs WT
- binding signal (TBR1 T-box domain K228E): ~3 fold increase in Kd vs WT
